This data set concerns the molecule itself. Nature of the data set: self-assembly into 2D arrays, negative-stain EM and AFM. How it is done: Samples were applied to glow-discharged EM grids and stained with either uranyl acetate (UA), uranyl formate (UF) or NanoW™ (Nanoprobes, Inc, Yaphank, N.Y., USA) for screening or analysis. Data was collected using a Tecnai T12 equipped with a Gatan Orius CCD. CTF estimation was performed using GCTF (10), and all other image processing steps were completed via Relion™ 2.1 (11). For the analysis in FIG. 2G, 421 2D array segments were picked manually from 42 micrographs, and the resulting 2D class average used as a template for Relion™ autopicking, which yielded 5,823 2D array segments. After subsequent 2D classification and alignment, the dominant 2D class consisted of 1,893 array segments (each approximately 20 nm diameter).

B1: 2D-HP (designed binder)
chain: MGSRTMYIRALEQSLREQEELAKRLKELLRELERLQREGSSDRDVKVLLWEIEALVEEIEKLARLQKELVEKLKRQGSGNMYIRALEQSLREQEELAKRLKELLRELERLQREGSSDRDVKVLLWEIEALVEEIEKLARLQKELVEKLKRQD
notes: Expressed from pET28b(+) between NdeI and XhoI; also called design 2D-HP; designed 2D assembly 2D-HP
Turning to B1, the binding result was “binds”.

The values above are taken from patent US20220162265A1 (University of Washington, published 2022).
